Data: patent US20140193915, “COMPOSITIONS AND METHODS FOR CUSTOM SITE-SPECIFIC DNA RECOMBINASES” (Monsanto Technology, LLC, published 2014)

How the values were obtained:
Assay in all cases: cell_activity; E. coli
pN-TALER IV-1-EE3 = biological target: T1, pN-TALER IV-1-EE3 (synthetic); settings: tags: 6-His
T1 chain: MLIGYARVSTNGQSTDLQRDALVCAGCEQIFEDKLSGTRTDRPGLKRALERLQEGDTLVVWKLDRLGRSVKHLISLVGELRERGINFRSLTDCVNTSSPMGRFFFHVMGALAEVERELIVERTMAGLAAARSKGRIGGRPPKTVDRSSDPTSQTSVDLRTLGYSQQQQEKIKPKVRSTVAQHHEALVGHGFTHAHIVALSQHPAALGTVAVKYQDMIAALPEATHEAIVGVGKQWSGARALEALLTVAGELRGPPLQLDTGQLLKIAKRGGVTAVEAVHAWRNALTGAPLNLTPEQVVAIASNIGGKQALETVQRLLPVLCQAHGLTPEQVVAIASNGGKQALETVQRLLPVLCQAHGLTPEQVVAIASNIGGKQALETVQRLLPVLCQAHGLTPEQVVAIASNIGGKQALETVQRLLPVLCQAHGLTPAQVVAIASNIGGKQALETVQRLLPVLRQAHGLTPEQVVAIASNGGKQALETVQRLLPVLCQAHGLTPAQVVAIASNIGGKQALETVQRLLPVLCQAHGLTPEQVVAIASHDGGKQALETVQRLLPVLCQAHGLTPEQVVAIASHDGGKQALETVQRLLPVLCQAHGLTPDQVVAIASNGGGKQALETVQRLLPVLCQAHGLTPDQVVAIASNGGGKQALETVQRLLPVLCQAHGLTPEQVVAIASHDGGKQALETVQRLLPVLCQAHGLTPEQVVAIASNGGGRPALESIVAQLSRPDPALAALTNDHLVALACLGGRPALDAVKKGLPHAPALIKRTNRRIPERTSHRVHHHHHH

sN-TALER IV-12 = biological target: T2, sN-TALER IV-12 (synthetic)
T2 chain: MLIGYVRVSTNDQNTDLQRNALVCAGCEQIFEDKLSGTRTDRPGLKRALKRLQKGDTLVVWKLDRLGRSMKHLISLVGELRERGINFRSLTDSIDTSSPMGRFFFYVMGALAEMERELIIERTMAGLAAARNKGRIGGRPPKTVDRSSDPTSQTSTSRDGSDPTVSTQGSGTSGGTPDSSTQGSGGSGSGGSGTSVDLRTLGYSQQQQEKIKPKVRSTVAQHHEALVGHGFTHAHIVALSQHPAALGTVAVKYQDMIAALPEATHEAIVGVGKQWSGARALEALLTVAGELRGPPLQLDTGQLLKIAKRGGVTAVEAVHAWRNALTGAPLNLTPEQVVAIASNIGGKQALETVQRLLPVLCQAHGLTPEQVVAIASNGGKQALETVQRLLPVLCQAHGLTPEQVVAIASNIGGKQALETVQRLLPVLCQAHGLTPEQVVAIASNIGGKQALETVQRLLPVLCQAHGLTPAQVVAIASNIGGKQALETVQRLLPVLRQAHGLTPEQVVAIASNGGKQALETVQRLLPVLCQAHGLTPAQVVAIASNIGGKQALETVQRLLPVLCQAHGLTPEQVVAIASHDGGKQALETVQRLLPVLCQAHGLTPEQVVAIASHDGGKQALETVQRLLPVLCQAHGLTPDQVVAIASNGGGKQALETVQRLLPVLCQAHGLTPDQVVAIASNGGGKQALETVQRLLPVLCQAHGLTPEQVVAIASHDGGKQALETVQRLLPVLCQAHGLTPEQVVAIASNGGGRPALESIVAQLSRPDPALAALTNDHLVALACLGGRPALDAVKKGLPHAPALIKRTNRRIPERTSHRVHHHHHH
Description: To test for recombination, E. coli DH5alpha cells were co-transformed with different combinations of TALER expression construct and TALER reporter construct pairs (Tables 6 and 7). The N-TALER expression and reporter constructs were in an approximate 1:1 mass ratio during the transformation. The co-transformed bacteria were plated on media with chloramphenicol, kanamycin, and X-gal then incubated at 37° C. for 18 to 36 hours. Control samples consisted of transformations using the reporter construct alone. Control transformants were similarly plated. The bacterial transformation protocol was either heat shock or electroporation per standard molecular biology techniques.
The N-TALER expression constructs representing the N-TALER chimeras with varying linker lengths were co-transformed with N-TALER reporter constructs with TALER central sequence lengths of 18, 20, 24, 30, 40, and 50 bp (Table 13). […] Recombination did occur, but was less efficient with the pN-TALER IV-14 (linker length of 71 amino acids) with each of the N-TALER reporters tested.

pN-TALER IV-5-EE2 = biological target: T3, pN-TALER IV-5-EE2 (synthetic); settings: tags: 6-His
T3 chain: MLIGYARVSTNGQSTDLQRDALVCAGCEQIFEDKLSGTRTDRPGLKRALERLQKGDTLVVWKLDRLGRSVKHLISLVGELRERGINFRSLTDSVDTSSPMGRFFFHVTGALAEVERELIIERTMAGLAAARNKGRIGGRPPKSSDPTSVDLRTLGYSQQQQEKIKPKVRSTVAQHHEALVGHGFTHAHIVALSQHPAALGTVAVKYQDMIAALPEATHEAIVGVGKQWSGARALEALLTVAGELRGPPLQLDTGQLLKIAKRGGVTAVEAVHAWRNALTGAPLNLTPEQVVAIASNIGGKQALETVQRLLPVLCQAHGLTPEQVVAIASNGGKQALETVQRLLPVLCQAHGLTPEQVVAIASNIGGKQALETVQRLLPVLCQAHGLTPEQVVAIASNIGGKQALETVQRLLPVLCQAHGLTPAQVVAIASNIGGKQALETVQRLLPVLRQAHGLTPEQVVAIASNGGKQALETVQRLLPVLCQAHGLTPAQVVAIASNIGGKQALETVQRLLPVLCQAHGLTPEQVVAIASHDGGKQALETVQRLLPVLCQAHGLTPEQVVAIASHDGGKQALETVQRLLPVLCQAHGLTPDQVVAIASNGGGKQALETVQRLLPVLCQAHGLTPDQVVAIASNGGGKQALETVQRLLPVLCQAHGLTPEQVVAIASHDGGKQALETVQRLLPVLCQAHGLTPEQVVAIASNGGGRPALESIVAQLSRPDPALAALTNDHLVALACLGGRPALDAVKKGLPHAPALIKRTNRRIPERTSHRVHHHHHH

B1: Gin18TALE+0 (dsDNA)
DNA 1: AGAAGGTATTTATACCAAAACCATGGTTTACATATAAATACCTTCT
DNA 2: AGAAGGTATTTATATGTAAACCATGGTTTTGGTATAAATACCTTCT
activity (pN-TALER IV-1-EE3): 3 score

B2: Gin20TALE+0 (dsDNA)
DNA 1: AGAAGGTATTTATATCCAAAACCATGGTTTACAGTATAAATACCTTCT
DNA 2: AGAAGGTATTTATACTGTAAACCATGGTTTTGGATATAAATACCTTCT
activity (sN-TALER IV-12): 1 score | activity (pN-TALER IV-5-EE2): 1 score
